Experimental findings from publication doi:10.1101/2023.12.21.572918 (bioRxiv, 2023) are described below.

The test addresses full length native GPC (strain Josiah) expressed on HEK293 cells (Lassa virus, strain Josiah, UniProt P08669). As to the kind of experiment: flow cytometry on cells. The conditions noted are these: one partner purified.

Sequence of full length native GPC (strain Josiah) expressed on HEK293 cells (P08669 whole entry, looked up): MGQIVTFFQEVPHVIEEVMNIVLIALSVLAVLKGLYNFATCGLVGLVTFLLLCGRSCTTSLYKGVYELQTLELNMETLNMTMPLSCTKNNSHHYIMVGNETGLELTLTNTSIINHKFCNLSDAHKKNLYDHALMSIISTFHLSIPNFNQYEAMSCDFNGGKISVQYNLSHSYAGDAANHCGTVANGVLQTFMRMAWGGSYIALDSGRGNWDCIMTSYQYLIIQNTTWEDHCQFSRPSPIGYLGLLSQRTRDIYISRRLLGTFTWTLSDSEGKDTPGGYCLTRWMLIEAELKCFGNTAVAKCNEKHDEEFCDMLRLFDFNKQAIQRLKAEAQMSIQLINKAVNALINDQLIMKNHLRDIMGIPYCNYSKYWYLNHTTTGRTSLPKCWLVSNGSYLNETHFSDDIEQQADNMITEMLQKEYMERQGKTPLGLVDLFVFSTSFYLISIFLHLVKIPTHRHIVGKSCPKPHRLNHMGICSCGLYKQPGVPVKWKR

B1: 25.10C IgG (antibody, V domains shown)
VH: QVQLQESGGGLVKPGGSLRLSCTASGFNFNKYNMNWVRQAPGKGLEWVSSISALSTYIYYADSLKGRFTVSRDNAKNSLFLQMNSLRDDDTAVYYCAREIRRASTWSADLWGRGTLVTVSS
VL: DIQMTQSPSSLSASVGDRVIITCRASQSISSSLNWYQQKPGKAPKLLIYAAVNLETGVPSRFSGSGFGTDFTLAISNVQPEDFATYYCQQSDTRTFGRGTKLDVK
For B1, the binding result is on record as “binds”.
